Source: IntAct's records for PubMed 10664449

B1: Guanine nucleotide-binding protein subunit beta (Saccharomyces cerevisiae), P18851 (parent)
chain: MAAHQMDSITYSNNVTQQYIQPQSLQDISAVEDEIQNKIEAARQESKQLHAQINKAKHKIQDASLFQMANKVTSLTKNKINLKPNIVLKGHNNKISDFRWSRDSKRILSASQDGFMLIWDSASGLKQNAIPLDSQWVLSCAISPSSTLVASAGLNNNCTIYRVSKENRVAQNVASIFKGHTCYISDIEFTDNAHILTASGDMTCALWDIPKAKRVREYSDHLGDVLALAIPEEPNSENSSNTFASCGSDGYTYIWDSRSPSAVQSFYVNDSDINALRFFKDGMSIVAGSDNGAINMYDLRSDCSIATFSLFRGYEERTPTPTYMAANMEYNTAQSPQTLKSTSSSYLDNQGVVSLDFSASGRLMYSCYTDIGCVVWDVLKGEIVGKLEGHGGRVTGVRSSPDGLAVCTGSWDSTMKIWSPGYQ
partner: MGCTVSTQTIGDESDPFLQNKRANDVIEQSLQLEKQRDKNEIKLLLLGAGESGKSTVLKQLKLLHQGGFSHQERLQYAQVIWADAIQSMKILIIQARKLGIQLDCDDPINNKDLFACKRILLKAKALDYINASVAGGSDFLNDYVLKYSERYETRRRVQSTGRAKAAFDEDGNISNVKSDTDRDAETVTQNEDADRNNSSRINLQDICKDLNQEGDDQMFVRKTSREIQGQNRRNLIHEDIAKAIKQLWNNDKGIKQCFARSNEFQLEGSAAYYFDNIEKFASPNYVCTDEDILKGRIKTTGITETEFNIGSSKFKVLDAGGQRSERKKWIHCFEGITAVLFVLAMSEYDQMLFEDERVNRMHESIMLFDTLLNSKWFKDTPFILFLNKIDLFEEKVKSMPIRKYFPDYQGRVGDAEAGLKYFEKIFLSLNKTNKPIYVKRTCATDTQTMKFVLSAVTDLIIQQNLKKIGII

Variants of: B1
Conditions: with gpa1_yeast GPA1, P08539

How did the “effect of a mutation on the interaction” value turn out when MAAHQMDSITYSNNVTQQYIQPQSLQDISAVEDEIQNKIEAARQESKQLHAQINKAKHKIQDASLFQMANKVTSLTKNKINLKPNIVLKGHNNKISDFRWSRDSKRILSASQDGFMLIWDSASGLKQNAIPFDSQWVLSCAISPSSTLVASAGLNNNCTIYRVSKENRVAQNVASIFKGHTCYISDIEFTDNAHILTASGDMTCALWDIPKAKRVREYSDHLGDVLALAIPEEPNSENSSNTFASCGSDGYTYIWDSRSPSAVQSFYVNDSDINALRFFKDGMSIVAGSDNGAINMYDLRSDCSIATFSLFRGYEERTPTPTYMAANMEYNTAQSPQTLKSTSSSYLDNQGVVSLDFSASGRLMYSCYTDIGCVVWDVLKGEIVGKLEGHGGRVTGVRSSPDGLAVCTGSWDSTMKIWSPGYQ [L132F] was run?
The value was “decreasing interaction”.
